Test results from publication PMC10810272.

Columns and labels:
[1] = target: Candidatus Methanomethylophilus alvus pyrrolysyl-tRNA synthetase (MaPylRS) (Candidatus Methanomethylophilus alvus) (UniProt M9SC49); assay: dynamic light scattering; Nano-S Zetasizer, five measurements; sample at 16 μM (0.5 mg/ml); dimer assigned from HullRad predictions on the crystal structure
[2] = target: Candidatus Methanomethylophilus alvus pyrrolysyl-tRNA synthetase (MaPylRS) (Candidatus Methanomethylophilus alvus) (UniProt M9SC49); assay: AUC; sedimentation velocity, 20°C, 30 000 rpm; 50 mM MES pH 5.2, 500 mM NaCl, 10 mM MgCl2; multiple concentrations (0.3, 0.6 and 1.2 mg/ml)

Candidatus Methanomethylophilus alvus pyrrolysyl-tRNA synthetase (MaPylRS) (from UniProt M9SC49 1-275) (enzyme)
stoichiometry N [1]: 2 | stoichiometry N [2]: 2
